The experiment concerns the target T1, Ang2 (UniProt O15123 19-496).
T1 sequence: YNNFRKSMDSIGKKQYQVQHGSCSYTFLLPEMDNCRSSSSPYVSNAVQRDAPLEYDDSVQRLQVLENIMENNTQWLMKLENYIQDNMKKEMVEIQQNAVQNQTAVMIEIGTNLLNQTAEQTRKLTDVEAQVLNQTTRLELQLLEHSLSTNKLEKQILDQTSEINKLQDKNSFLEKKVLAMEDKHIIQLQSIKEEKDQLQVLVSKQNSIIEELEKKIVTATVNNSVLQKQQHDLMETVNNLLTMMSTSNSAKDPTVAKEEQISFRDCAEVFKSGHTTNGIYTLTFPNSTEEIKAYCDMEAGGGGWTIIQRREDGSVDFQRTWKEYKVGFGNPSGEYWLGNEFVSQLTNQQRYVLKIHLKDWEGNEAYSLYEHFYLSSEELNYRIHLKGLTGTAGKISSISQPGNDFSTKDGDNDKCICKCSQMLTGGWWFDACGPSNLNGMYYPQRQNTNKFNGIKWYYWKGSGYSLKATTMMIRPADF
In words: SPR. On the technique in general: SPR reads the build-up and loss of mass on a sensor chip optically.

What is called Kd is the constant that tells how readily two partners part at equilibrium. A lower Kd goes with tighter binding.

The molecule LWDDCYFFPNPPHCYNSP (designed binder) [MBP-a1] showed a Kd of 22.2 ± 0.08 nM.

(Values after paper PMC3893231 (mAbs, 2013).)
